Test results taken from article PMC9992711, “Two-step structural changes in M3 muscarinic receptor activation rely on the coupled Gq protein cycle” (Nature Communications, 2023).
Blank lines part the entries; values can stand above or below the molecule they belong to.

How the values were obtained:
[1] = molecular target: T1, human M3 muscarinic receptor (hM3R) (Homo sapiens, UniProt P20309, DEL271-484); assay: intramolecular receptor FRET in HEK293T cells, concentration-response; format: cell-based
T1 construct: gene CHRM3; hM3R-YFP-CFP (EYFP replaces segment between Ala270 and Lys485 in ICL3; Cerulean at C-terminus)

[2] = molecular target: T2, mouse M1 muscarinic receptor (mM1R) (Mus musculus, UniProt P12657); assay: receptor FRET and RFP-PH translocation in HEK293T cells; format: cell-based
T2 construct: gene Chrm1; mM1R-YFP-CFP; wild-type mM1R
T2 sequence (P12657 1-460): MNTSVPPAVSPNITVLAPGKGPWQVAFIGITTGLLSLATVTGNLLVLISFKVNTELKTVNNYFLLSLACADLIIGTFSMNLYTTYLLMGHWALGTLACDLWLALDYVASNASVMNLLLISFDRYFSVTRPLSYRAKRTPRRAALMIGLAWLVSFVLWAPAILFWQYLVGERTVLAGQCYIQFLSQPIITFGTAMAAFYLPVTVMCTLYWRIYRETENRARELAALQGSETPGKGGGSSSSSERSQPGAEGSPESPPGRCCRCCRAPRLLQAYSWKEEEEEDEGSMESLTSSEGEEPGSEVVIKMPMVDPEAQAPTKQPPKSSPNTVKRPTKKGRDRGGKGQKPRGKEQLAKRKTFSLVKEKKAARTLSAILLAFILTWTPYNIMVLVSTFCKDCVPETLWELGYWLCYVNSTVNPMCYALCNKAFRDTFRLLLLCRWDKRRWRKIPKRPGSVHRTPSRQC

hM3R-Cerulean (human) [3] = molecular target: hM3R-Cerulean (human) (UniProt P20309); assay: FRET or BRET; CFP/YFP photometry on single live HEK293T (tsA-201) cells; labelled pair with the remaining cognate G protein subunits co-transfected (GRK2 too for Gαq-CFP with Gβ1-YFP; only the two probes for hM3R-CFP with YFP-PLCβ1); 10 μM Oxo-M applied and washed out
hM3R-Cerulean (human) [4] = molecular target: hM3R-Cerulean (human) (UniProt P20309); assay: FRET or BRET; CFP/YFP photometry on single live HEK293T (tsA-201) cells; labelled pair co-transfected with the remaining cognate G protein subunits (GRK2 too for Gαq-CFP with Gβ1-YFP); whole-cell patch, pipette with 0.1 mM GTP; 10 μM Oxo-M applied; room temperature
[5] = molecular target: hM3R-EYFP-Cerulean (human) (UniProt P20309)

Sequence of heterotrimeric Gq protein (P50148 whole entry, looked up, one chain of several): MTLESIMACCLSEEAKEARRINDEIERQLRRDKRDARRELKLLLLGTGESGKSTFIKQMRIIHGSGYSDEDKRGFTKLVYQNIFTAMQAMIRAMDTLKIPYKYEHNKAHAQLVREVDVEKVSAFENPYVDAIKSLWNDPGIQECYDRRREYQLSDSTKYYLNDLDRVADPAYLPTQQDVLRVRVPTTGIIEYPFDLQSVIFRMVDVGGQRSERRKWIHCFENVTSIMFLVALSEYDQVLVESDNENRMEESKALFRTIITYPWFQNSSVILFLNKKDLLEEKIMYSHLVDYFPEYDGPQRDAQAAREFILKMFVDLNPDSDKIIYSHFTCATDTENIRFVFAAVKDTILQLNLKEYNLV

Molecule: C[N+](C)(C)CC#CCN1CCCC1=O [Oxo-M, oxotremorine-M]
- EC50 [1]: 112 nM
- receptor FRET and RFP-PH translocation in HEK293T cells [2]: wild-type mM1R or hM3R plasmid showed a strong translocation of RFP-PH from the plasma membrane to cytosol by Oxo-M

- deactivation time constant τ of FRETr after Oxo-M washout (hM3R-Cerulean (human) [3]): 0.53 s
- time constant τ of the FRETr increase on Oxo-M (hM3R-Cerulean (human) [4]): 0.23 s
Molecule: Gβγ subunits (bovine Gβ1-EYFP with Gγ2) (from UniProt P62871 1-340; P59768 1-71) (complex; other documents disagree on this pair)

- intramolecular FRETr of hM3R-YFP-CFP, time constant τ of step 1 on Oxo-M, intact HEK293T cells [5]: 0.22 s
Molecule: heterotrimeric Gq protein (from UniProt P50148 1-359) (complex)
